Measured values from patent publication US20030175925A1, “Nicotinamide ribonucleoside kinase” (priority 2001, published 2003).

B1: NadR H. influenzae; N-terminal domain: N-terminal domain of NadR from H. influenzae, amino acids 38-212, only NMNATse domain (protein, UniProt P44308 38-212, looked up, fragment)
chain: YNKHTQFLRYQEQIMSKTKEKKVGVIFGKFYPVHTGHINMIYEAFSKVDELHVIVCSDTVRDLKLFYDSKMKRMPTVQDRLRWMQQIFKYQKNQIFIHHLVEDGIPSYPNGWQSWSEAVKTLFHEKHFEPSIVFSSEPQDKAPYEKYLGLEVSLVDPDRTFFNVSATKIRTTPFQ
B2: NadR H. influenzae: N-truncated NadR protein from H. influenzae, amino acids 38-407, both NMNATse and NRKse domains (protein, UniProt P44308 38-407, looked up, fragment)
chain: YNKHTQFLRYQEQIMSKTKEKKVGVIFGKFYPVHTGHINMIYEAFSKVDELHVIVCSDTVRDLKLFYDSKMKRMPTVQDRLRWMQQIFKYQKNQIFIHHLVEDGIPSYPNGWQSWSEAVKTLFHEKHFEPSIVFSSEPQDKAPYEKYLGLEVSLVDPDRTFFNVSATKIRTTPFQYWKFIPKEARPFFAKTVAILGGESSGKSVLVNKLAAVFNTTSAWEYGREFVFEKLGGDEQAMQYSDYPQMALGHQRYIDYAVRHSHKIAFIDTDFITTQAFCIQYEGKAHPFLDSMIKEYPFDVTILLKNNTEWVDDGLRSLGSQKQRQQFQQLLKKLLDKYKVPYIEIESPSYLDRYNQVKAVIEKVLNEEEIS
B3: NadR Salmonella: full-size NadR protein from Salmonella typhimurium, all three domains (HTH, NMNATse, NRKse), His-tagged recombinant (protein, UniProt P24518 1-410, looked up)
chain: MSSFDYLKTAIKQQGCTLQQVADASGMTKGYLSQLLNAKIKSPSAQKLEALHRFLGLEFPRRQKNIGVVFGKFYPLHTGHIYLIQRACSQVDELHIIMGYDDTRDRGLFEDSAMSQQPTVSDRLRWLLQTFKYQKNIRIHAFNEEGMEPYPHGWDVWSNGIKAFMAEKGIQPSWIYTSEEADAPQYLEHLGIETVLVDPERTFMNISGAQIRENPFRYWEYIPTEVKPFFVRTVAILGGESSGKSTLVNKLANIFNTTSAWEYGRDYVFSHLGGDEMALQYSDYDKIALGHAQYIDFAVKYANKVAFIDTDFVTTQAFCKKYEGREHPFVQALIDEYRFDLVILLENNTPWVADGLRSLGSSVDRKAFQNLLVEMLKENNIEFVHVKEADYDGRFLRCVELVKEMMGEQG
modifications: full-length His tag
notes: full-size NadR protein from Salmonella typhimurium, all three domains (HTH, NMNATse, NRKse), His-tagged recombinant

Tests used:
[1] = discontinuous spectral NMNATse assay coupled to alcohol dehydrogenase (NAD to NADH, 340 nm); assay type: biochemical; conditions: specific activity; 37° C., pH 7.5, 2 mM ATP, NMN substrate; 1 unit = 1 micromole NADH per minute
Description: The discontinuous spectral NMNATse assay procedure (used for both human NadD2_HS and NadR) coupled to alcohol dehydrogenase (ADH) catalyzed conversion of NAD to NADH was adapted from Balducci, E., et al., Biochem. J., 310:395-400 (1995), as described in U.S. Ser. No. 09/550,398, filed Apr. 14, 2000. The assay was performed in disposable UV-transparent plastic cuvettes in a 6-cuvette autosampler of Beckman DU-640 set at 37° C. The 500 μL mixture contained 100 mM HEPES, pH 7.5, 115 mM ethanol, 40 mM semicarbazide, 2 mM ATP, 3 units of ADH (Sigma), and 0.2-2 milliunits of NMNATse (0.1-10 μg depending on specific activity). A reaction was initiated by adding 10 μL of 50 mM NMN, and monitored at 340 nm over 20 minutes. An extinction coefficient of NADH equal to 6.22 mM^−1 cm^−1 was used for rate calculations. One unit of enzyme was defined as a quantity capable of producing 1 micromole of NADH per minute.

[2] = discontinuous spectral NRKse assay coupled to NadD2_HS (NMNATse) and ADH; assay type: biochemical; conditions: for RATIO: ratio NmR Kinase / NMNATse specific activity; for NmR Kinase: specific activity, 37° C., pH 8.0, 0.8 mM NmR, ATP, 1 unit = 1 micromole NADH per minute; for NRKse and NMNATse activity (summary in words): NMNATse and NRKse assays together
Description: The discontinuous spectral NRKse assay was based on enzymatic coupling of NmR→NMN conversion to production of NAD, catalyzed by excess amounts of recombinant purified NadD2_HS enzyme (NMNATse). NAD production was further coupled to NADH conversion by ADH, as in the NMNATse assay described above.
The assay was performed in disposable UV-transparent plastic cuvettes in a 6-cuvette autosampler of Beckman DU-640 set at 37° C. The 500 μL mixture contained 100 mM Tris/HCl pH 8.0, 115 mM ethanol, 40 mM semicarbazide, 0.8 mM NmR, 0.15 units of NadD2_HS, 3 units of ADH (Sigma), and 0.2-2 milliunits of NRKse (0.2-2 μg, depending on the specific activity). A reaction was initiated by adding 50 μL of 50 mM ATP, and monitored at 340 nm over 20 minutes. An extinction coefficient of NADH equal to 6.22 mM^−1 cm^−1 was used for rate calculations. One unit of enzyme was defined as a quantity capable of producing 1 micromole of NADH per minute.

| Molecule | NMNATse [1] [Un/mg] | RATIO [2] | NmR Kinase [2] [Un/mg] | NRKse and NMNATse activity (summary in words) [2] |
| --- | --- | --- | --- | --- |
| B1 | 3 | <0.001 | <0.003 | – |
| B2 | 0.9 | 0.02 | 0.02 | possess NRKse activity in addition to NMNATse activity |
| B3 | 0.04 | 125 | 5 | possess NRKse activity in addition to NMNATse activity |
